Assay results: the supplement of paper PMC10724198
± gives the standard deviation of the averaged measurements.

test system: Saccharomyces cerevisiae; assay: protein stability index of tFT-peptide fusion (C-terminal peptide) (PSI (0-1 scale)); higher = more stable (slower turnover); conditions: genetic background: wild type; temperature: 30 C
Protocol: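 Multiplexed protein stability (MPS) profiling in S. cerevisiae. Random 12-aa peptides (tFT-X12 library) are fused to the C-terminus of a sfGFP-mCherry tandem fluorescent timer, after mCherry and a GGGS linker. Cells are FACS-sorted into 8 mCherry/sfGFP bins and deep-sequenced. The protein stability index (PSI) is the read-weighted bin average, scaled from 0 (unstable) to 1 (stable). Only peptides with >10 reads are reported; cells were grown at 30 °C in SC-His with glucose.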
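Note: PSI is a weighted mean of sequencing reads over stability bins, variants kept only with over 10 reads, mCherry proximal and sfGFP distal, peptide attached via GGGS linker.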

Sequence	protein stability index
APVLPKPSPFSF	0.629 ± 0.01
APWSQLRSPPAL	0.769 ± 0.037
AQIGTKINTRKT	0.599 ± 0.04
AQPAPAPALADV	0.667 ± 0.039
AQPPPPPAPTPS	0.674 ± 0.093
AQSPRFPYRNYH	0.693 ± 0.049
AQTASQSPYRVG	0.731 ± 0.017
ARADILLLTWGV	0.604 ± 0.027
ARAGLVGDARGM	0.641 ± 0.026
ARAPPSSYPPSG	0.66 ± 0.012
AREGSRGVDVGV	0.629 ± 0.01
ARGPCRGSGSFG	0.631 ± 0.044
ARKRRRRGHDTE	0.725 ± 0.19
ARLATLSPEMAN	0.729 ± 0.082
ARLPSSRLDLSP	0.686 ± 0.056
ARPAPPDNVHRN	0.626 ± 0.069
ARPGSVIAQLRV	0.598 ± 0.031
ARPPPPPRSSPL	0.747 ± 0.072
ARRGGRKRPGAV	0.631 ± 0.056
ARSQGEKGGDVV	0.692 ± 0.0072
ARSVHGSLSLVM	0.633 ± 0.042
ARTADPAATPST	0.687 ± 0.02
ARTIVLGAGSGT	0.654 ± 0.084
ARVDGGGVRTDV	0.7511 ± 0.0069
ASALIFTPPSFL	0.686 ± 0.12

Sequence	protein stability index
ASFHPIAPVSTP	0.6862 ± 0.0011
ASFSLSPFLPFS	0.6854 ± 0.0068
ASFVPPYLPSSM	0.75 ± 0.17
ASIPAPRLTPRA	0.681 ± 0.048
ASLAACSLTNSV	0.697 ± 0.053
ASLLSCSLLPPV	0.765 ± 0.08
ASNVHSSTARFI	0.687 ± 0.082
ASPLTIHSPNLL	0.725 ± 0.064
ASPSKVSGLNID	0.785 ± 0.097
ASRCEVGVRWGG	0.683 ± 0.025
ASRKRKVAQESR	0.688 ± 0.03
ASRWVLLGGGGV	0.693 ± 0.03
ASSDLQDSPIGD	0.665 ± 0.019
ASSHDNPEEVST	0.6298 ± 0.002
ASTMAVLDYAPA	0.621 ± 0.0083
ASTTNLGNPFKA	0.654 ± 0.038
ASVLFILAIPDL	0.565 ± 0.039
ASVRPCSCSGRQ	0.715 ± 0.069
ATCSILPSRLSI	0.6124 ± 0.0011
ATHPPPPPLPPI	0.648 ± 0.068
ATLIGIPPSLSA	0.6643 ± 0.00067
ATQPPPPPLPPI	0.636 ± 0.052
ATQTGFGGGGPM	0.689 ± 0.013
ATSRGFLQNLMA	0.55737 ± 0.00018
ATVGVGSLLVKY	0.747 ± 0.05

Sequence	protein stability index
AVGGDGGAWVGP	0.7231 ± 0.0022
AVGGGTPGGVSG	0.667 ± 0.012
AVGTYFSPVVLL	0.65 ± 0.016
AVNEHVPILFLL	0.62 ± 0.073
AVRRRGGLSVGV	0.654 ± 0.036
AVSCGLGAGSSA	0.645 ± 0.039
AVTWSRPRSARM	0.736 ± 0.0041
AVVVGGGGWWWA	0.801 ± 0.12
AVWSLMRCREFV	0.652 ± 0.028
AVYSACSRVGWV	0.6937 ± 0.0061
AWGELGAGVFGL	0.68 ± 0.049
AWLAQIKLGWGL	0.68 ± 0.016
AYCVPPAFPFPL	0.627 ± 0.044
AYNFMTSVVPGK	0.744 ± 0.056
AYRLAFYGCVMR	0.514 ± 0.02
AYSNVFLDPTPV	0.69 ± 0.0097
CAASLSHKSAPY	0.768 ± 0.1
CACYILHGRSNP	0.684 ± 0.081
CAEFLFSTVLYP	0.735 ± 0.049
CCCELNTEIVQT	0.682 ± 0.059
CCCVLMTFTSSP	0.561 ± 0.044
CCFVLDLSASLL	0.625 ± 0.076
CCKRWICLLRRK	0.646 ± 0.012
CCLFCLLWSLLY	0.64 ± 0.0067
CDRVAQWTYPDA	0.783 ± 0.084

Sequence	protein stability index
CEEQQPGFKPLL	0.706 ± 0.04
CEERGLLPTQYS	0.6686 ± 0.006
CEGERRTLSVKP	0.666 ± 0.033
CEHRTPLMFKRG	0.686 ± 0.048
CEKGLFLRSAYV	0.65 ± 0.034
CEVCRGSDRCDV	0.609 ± 0.015
CEYPWGTVVRDG	0.709 ± 0.045
CFCVRTGCSVGV	0.663 ± 0.016
CFFNAASHSTYE	0.7032 ± 0.0049
CFHIFRKSNMNN	0.726 ± 0.11
CFLLSSFSLPRS	0.705 ± 0.0078
CFLSAVFISSSL	0.601 ± 0.045
CFRGGLLSESVV	0.6714 ± 0.0011
CFRPFSARVVVL	0.565 ± 0.016
CFSPAAPLLLPG	0.689 ± 0.025
CGACGFGLGVWV	0.701 ± 0.021
CGFALFLCDGFV	0.744 ± 0.083
CGGRPPADLRLS	0.69 ± 0.054
CGHVRSLAMAHN	0.68 ± 0.019
CGLGVRGRLVLS	0.625 ± 0.026
CGLRRRAGGGGV	0.7 ± 0.024
CGLSLRVICLEV	0.497 ± 0.02
CGRVWAENGSQG	0.689 ± 0.008
